Source: US20250154231A1 (RQBIO COVID, published 2025)

Target: SARS-CoV-1 S protein (SARS-CoV-1, UniProt P59594 14-1195)
Assay: ELISA

B1: Omi26 (antibody, V domains shown)
VH: QVQLVQSGTEVKKPGASVKVSCKASDYTFTRFGIIWVRQAPGQGLEWMGQINPYNGNTDYAQKFQGRVTLTTDTSTNTAYMELRSLRSDDTAVYYCARSAGSPTGLDYWGQGTLVTVSS
VL: QSVVTQPPSVSEAPRQRVTISCSGSNSNIGNNAVNWYQQLPGKAPKLLVYYDDLLPSGVSDRFSGSKSGTSASLAISGLQSEDKADYYCAAWDDSLNALVFGGGTKLTVL
binding result: no binding

B2: Omi34 (antibody, V domains shown)
VH: QVQLVQSGAEVKKPGSSVKVSCKASGGTFSSYGIRWVRQAPGQGLEWMGGIIPVFGATNYAQKFQDRVTITADKSTATAYMELSSLKSDDTAVYFCARDALSASGWTGPFDSWGQGTLVTVSS
VL: QSVLTQPPSVSGAPGQRVTISCTGSSSNIGADYDVHWYQQLPGAAPKLLIYGNNNRPSGVPDRFSGSKSGTSASLAITGLQAEDEADYYCQSYDSSQNAFYVFGTGTKVTVL
binding result: no binding

B3: Omi39 (antibody, V domains shown)
VH: QVQLVESGGVVVQPGGSLRLSCAASGFSFDDYSMHWVRQAPGKGLEWVSVIYWDGVSKYYADSVKGRFTISRDNSKNSLYLQMNSLRTEDTAVYYCAKDSEDCSSTSCYMDVWGKGTTVTVSS
VL: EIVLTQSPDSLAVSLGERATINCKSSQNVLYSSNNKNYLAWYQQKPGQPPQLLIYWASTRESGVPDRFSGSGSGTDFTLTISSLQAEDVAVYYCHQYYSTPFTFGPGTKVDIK
binding result: no binding

B4: Omi30 (antibody, V domains shown)
VH: EVQLVESGAEVKKPGSSVKVSCKASGGTFSRYAISWVRQAPGQGLEWMGGIIPIFDATNYAQKFHDRVTITADKSASTAYMELSSLRSDDTAVYYCARERTYCSGGTCYGGYFYYGMDVWGQGTTVTVSS
VL: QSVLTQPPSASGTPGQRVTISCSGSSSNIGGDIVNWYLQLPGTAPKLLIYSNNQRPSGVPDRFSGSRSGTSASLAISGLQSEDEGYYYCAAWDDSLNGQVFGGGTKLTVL
binding result: no binding

B5: Omi25 (antibody, V domains shown)
VH: QVQLVESGGGLVQPGRSLRLSCAASGFTFDDYAMHWVRQVPGKGLEWVSGISWNSGSIVYADFVKGRFTIARDNAKNSLFLQMNSLRAEDTALYYCAKSTALRHQYYYGMDVWGQGTTVTVSS
VL: AIQMTQSPSSLSASVGDRVTITCRTSQTISSYLNWYQQKPGKAPKLLIYDASSLQSGVPSRFSGSGYGTDFTLTISSLQPEDFATYFCQQSYNTPYAFGQGTKVEIK
binding result: no binding

B6: Omi32 (antibody, V domains shown)
VH: EVQLVESGGGVVQPGRSLRLSCAASGFTFSNYGMHWVRQAPGKGLEWVAVYWYDGGNKFYADSVKGRFTISRDNSKNTLYLQMNSLRVEDTAVYYCARDTAPPDYWGQGTLVTVSS
VL: AIRMTQSPGTLSLSPGERATLSCRASQSISSSFLAWYQQKPGQAPRLLIYGASSRATGIPDRFSGSGSGTDFTLTISRLEPEDFAVYYCQQYGTSPRLTFGGGTKVDIK
binding result: no binding

B7: Omi29 (antibody, V domains shown)
VH: QVQLVESGGGLVQPGGSLRLSCAASGLIVSRNYMSWVRQAPGKGLEWVSLIYAGGSTFYSDSVKGRFTISRHSSENTLFLQMNSLRAEDTAVYYCARDLVHYGMDVWGQGTTVTVSS
VL: NFMLTQPASVSGSPGQSITISCTGTSSDVGGYNYVSWYQQHPGKAPKLMIYDVSNRPSGVSNRFSGSNSGNTASLTISGLQAEDEADYYCSSYTSGSTWVFGGGTKLTVL
binding result: no binding

B8: Omi35 (antibody, V domains shown)
VH: QVQLVESGGGLVQPGRSLRLSCAASGFTFDDYAMHWVRQAPGKGLEWVSGSTWNSGTIDYADSVKGRFTISRDNAKNSLYLQMNSLRAEDTALYYCAKDRFRKGCSSTGCYKENYGMDVWGQGTTVTVSS
VL: QSVVTQPPSVSVAPGQTARITCGGTNIGSKSVHWYQQKPGQAPVLVVYDDSDRPSGIPERFSGSNSGNTATLTITWVEAGDEADYYCQVWDSSSDNVLFGGGTKLTVL
binding result: no binding

B9: Omi31 (antibody, V domains shown)
VH: EVQLVQSGAEVKKPGSSVKVSCKASGGTFSSYGISWVRQAPGLGLEWMGGVIPILSAKHYAQRFQGRVTITADKSTGTAYMELSSLRSEDTAVYYCARDILHHDDLWGRFYYDGMDVWGQGTTVTVSS
VL: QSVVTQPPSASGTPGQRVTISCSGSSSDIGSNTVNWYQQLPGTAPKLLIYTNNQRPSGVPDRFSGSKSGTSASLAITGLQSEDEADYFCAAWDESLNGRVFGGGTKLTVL
binding result: no binding

B10: Omi27 (antibody, V domains shown)
VH: EVQLLESGGGLVQPGGSLRLSCVASGLTVSSNYMSWVRQAPGKGLEWVSIIYPGGTTYYADSVKGRFTTSRDKSKNTLYLQMNSLRAEDTAVYYCARDLAVAGGMDVWGQGTTVTVSS
VL: EIVMTQSPSSLSASVGDRVTITCRASQGIGNDLGWYQQKPGKAPKVLIYAASNLQSGVPSRFSGSGSGTDFTLTISSLQPEDFATYYCLQDSNYPYTFGQGTKVEIK
binding result: no binding

B11: Omi20 (antibody, V domains shown)
VH: EVQLVESGGGLVQPGGSLRLSCEASEITVSSNYMNWVRQAPGKGLEWVSVLFAGGTTYYADSVKGRFTISRDNSKNTLYLQMNTLRIEDTAIYYCARDLVAYGVDVWGQGTTVTVSS
VL: AIQMTQSPSFLSASVGDRVTITCRASQGISGDLAWYQQKPGKAPKLLIYAASTLQSGVPSRFSGSGSGTEFTLTISSLQPEDFATYYCQHLNSYPLTFGGGTKVEIK
binding result: no binding

B12: Omi02 (antibody, V domains shown)
VH: EVQLVESGAEVKKPGSSVKVSCKASGGTFSSYAINWVRQAPGQGLEWMGGIIPIFRTPHYAQKFQGRVTITADESTGTAYMELSSLRSEDTAVYYCASPSCGGDCPQYLKSSKLDWYFDLWGRGTLVTVSS
VL: VIWMTQSPGTLSLSPGERATLSCRASQSVSSTYLAWYQQKPGQAPRLLIYGASSRATGIPDRFSGSGSGTDFTLTISRLEPEDFAVYYCQHYGSSPLTFGQGTRLEIK
binding result: no binding

B13: Omi24 (antibody, V domains shown)
VH: QVQLVESGAEVKKPGSSVKVSCKASGGTFSSHGVIWVRQAPGQGLEWMGGIIPIFPTANYAQKFQGRVTITADKPSNTAYMELSSLRSEDTAVYYCARARGEHDSVWGSFHYYFDYWGQGTLVTVSS
VL: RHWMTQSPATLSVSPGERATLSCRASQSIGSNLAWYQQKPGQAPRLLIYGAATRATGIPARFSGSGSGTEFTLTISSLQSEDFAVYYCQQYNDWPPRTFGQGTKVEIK
binding result: no binding

B14: Omi28 (antibody, V domains shown)
VH: EVQLVESGGGLVQPGGSLRLSCAASGVIVSSNYMSWVRQAPGKGLQWVSVIYSGGSTFYADSVKGRFTISRDNSKNTLYLQMNSLRAEDTAVYYCARDLLEAGGTDYWGQGTLVTVSS
VL: DVVMTQSPGTLSLSPGERATLSCRASQFIGSSYLAWYQQKPGQAPRLLIYGASNRATGVPDRFSGSGSGTDFTLTISRLEPEDFAVYYCQQYGSAPGTFGQGTKVEIK
binding result: no binding

B15: Omi23 (antibody, V domains shown)
VH: QVQLQESGPGLVKSSQTLSLTCTVSGDSISRGGYYWSWIRQHPGKGLEWIGSIYYSGSTYYNPSLKSRFTISVDTSKNQFSLKLSSVTAADTAVYHCAREIGFLDYWGQGTLVTVSS
VL: AIQMTQSPSSLSASVGDRVTITCRASQAISNSLAWYQQKPGKAPKLLLYAASTLESGVPSRFSGSGSGTDFTLTISSLQPEDFATYFCQQYYSTPPRTFGQGTKVDIK
binding result: no binding

B16: Omi38 (antibody, V domains shown)
VH: QVQLVESGAEVKKPGSSVKVSCKASGGNFNMYTISWVRQAPGRGLEWMGRFIPIANKANYAQNFPGRVTITADKSTSTVYMELRSLTSDDTAVYYCARSGSYDAFDVWGQGTMVTVSS
VL: AIRMTQSPSTLSASVGDRVTITCRASQTINSWLAWYQQKPGKAPKLLIYDASNLESGVPSRFSGSGSGTEFTLTISSLQPDDFATYYCQQYESYSPITFGQGTRLEIK
binding result: no binding

B17: Omi36 (antibody, V domains shown)
VH: EVQLVESGGGVVQPGGSLRLSCAASGIIVSANYMTWVRQAPGKGLEWVSVIYPGGSTFYADSVKGRFTISRDNSKNTLYLQMNSLRVEDSAVYYCARDLELAGFNDYWGQGTLVTVSS
VL: DIVMTQSPGTLSLSPGERATLSCRTSQSVSSNYLAWYQQKPGQAPRLLIYGASSRATGIPDRFSGSGSGTDFTLTISRLEPEDFAVYYCQQFGSSPRYTFGQGTKVEIK
binding result: no binding
